In experiment [1] the test system is AVICEL® PH microcrystalline cellulose. The experiment is described as follows: GH61a Variant 1 plus beta-glucosidase with reducing agents or pretreatment filtrate on AVICEL (FIG. 5A). Format: biochemical. To be noted: 0.3% GH61a Variant 1, 0.08% BGL, 30 μM CuSO4, 48 h, pH 5, 55° C. How it is done: (§1) This Example provides experiments conducted to determine the effect of adding reducing agents (e.g., gallic acid and ascorbic acid) to saccharification reactions. In these experiments, enhancement of GH61 activity was tested using Variant 1 (SEQ ID NO:5) in the presence of reducing agents (specifically, ascorbic acid or gallic acid) and pretreatment filtrate, which contains various reducing agents from lignin degradation. Reactions were performed on cellulosic substrates, AVICEL® PH microcrystalline cellulose and phosphoric acid swollen cellulose (PASC), with purified M. thermophila-produced GH61 Variant 1 and beta-glucosidase at 0.3% and 0.08% respectively, with respect to substrate glucan mass, and 128 mM sodium acetate buffer (pH 5) supplemented with 30 μM CuSO4. Thus, reactions were performed with 0.3% GH61a and 0.08% BGL, where % enzyme loads are with respect to substrate glucan mass (36 g/L AVICEL® cellulose and 5 g/L PASC). Background (negative) controls were beta-glucosidase-only reactions tested in the absence of GH61a. Glucose production after 48 h incubation at pH 5, 55° C. was determined by glucose oxidase/peroxidase-based or HPLC-based glucose assay glucose assay, using methods known in the art. […] Filtrate dilutions are indicated in this Figure, where undiluted filtrate equals 72% of the total reaction volume. […]

Experiment [2] deals with phosphoric acid swollen cellulose (PASC). The experiment is described as follows: GH61a Variant 1 plus beta-glucosidase with reducing agents or pretreatment filtrate on PASC (FIG. 5B). Format: biochemical. Particulars: 0.3% GH61a Variant 1, 0.08% BGL, 30 μM CuSO4, 48 h, pH 5, 55° C. How it is done: as §1
Experiment [3] concerns acid-pretreated corn stover. In words: Shake flask saccharification with CF-416 whole broth enzymes with 0 or 50 μM CuSO4 at pH 5.0 or pH 6.0 (FIG. 4). It counts as biochemical. To be noted: 50 μM vs 0 CuSO4; for increase in glucose yields: CF-416 whole broth enzymes 0.81%, 72 hours, 55° C. How it is done: This Example describes experiments designed to determine the effects of added copper in saccharification reactions. The saccharification reactions were run in 30g shake flasks (250 mL flasks) using 82g/kg glucan of acid-pretreated corn stover and whole broth enzymes produced by M. thermophila strain CF-416 (produced using standard methods known in the art) at a 0.81% total enzyme load with respect to glucan. […] A pH trim was also performed using 2M NaOH at time intervals of 1, 4, 7, 22, 24 29, 46, 52, 70, 75 and 96 hrs, to maintain the pH at the desired value of pH 5.0 or pH 6.0. Samples were removed at 72 hours and the total amount of glucose in the reaction mixture was determined using standard HPLC methods and equipment as known in the art.

The subject of experiment [4] is pre-treated wheat straw. In words: Biomass assay of a cellulase mixture (GH61a, CBH1a, CBH2b, BGL) with surfactants (FIG. 6). It counts as biochemical. Particulars: BGL at 0.3%, 0.15%, 0.08%, 55° C., 72 hours, pH 5. How it is done: This example illustrates the enhancement of overall saccharification yield with the addition of surfactants such as TWEEN®-20 and PEG-4000. Experiments were designed to monitor the enhancement in cellulase activity with different concentrations of TWEEN®-20 or PEG-4000 in the biomass assay. The biomass assay was performed in a total volume of 90 μL, including 10 mg of pre-treated wheat straw, 64.8 μL (72% by volume) of filtrate (or H2O for no filtrate conditions), and 11.6 μl, of a mixture of sodium acetate buffer (pH 5.0, supplemented with CuSO4), M. thermophila-produced cellobiohydrolase 1a (CBH1a), cellobiohydrolase 2b (CBH2b), beta-glucosidase (BGL), and glycoside hydrolase type 61 (GH61a). The final concentration of sodium acetate was 128 mM (with 30 μM CuSO4) and the enzyme loads of CBH1a, CBH2b, BGL and GH61a were 0.15%, 0.15%, 0.08% and 0.3% with respect to the substrate glucan mass in the biomass substrate, respectively. Water was used in place of the enzymes as a negative control. […]
Data shown are total glucose produced by a mixture of GH61a, CBH1a, CBH2b, and BGL at 0.3%, 0.15%, 0.15%, and 0.08% with respect to the substrate glucan mass in the biomass substrate, respectively. In this Figure, TWEEN®-20 concentrations are expressed as % total reaction volume.
In this Figure, PEG-4000 concentrations are expressed as % total reaction volume.

Experiment [5] has as its system M. thermophila CF-416 whole broth cellulases. Particulars: 87g/kg glucan, 0.81% enzyme load, pH 5.0, 55° C., 50 μM CuSO4, 72 hours.
Experiment [6] has as its system crystalline cellulose. In words: Saccharification of crystalline cellulose by cellulase enzymes in culture broth from M. thermophila cells with GH61a added (FIG. 1). It counts as biochemical. Particulars: GH61a added to cellulases of M. thermophila culture broth. How it is done: FIG. 1 provides results of an experiment using recombinantly produced GH61a protein having the sequence shown in SEQ ID NO:2. The protein was tested for its ability to promote the activity of cellulases present in culture broth of M. thermophila.
A protein from a strain of M. thermophila having the amino acid sequence provided in SEQ ID NO:2 was previously identified as having GH61 activity. It was designated “GH61a”.

Experiment [7] concerns pretreated corn stover (PCS). In words: Supplementation of CF-416 whole cellulase broth with single purified enzymes, saccharification of pretreated corn stover. It counts as biochemical. To be noted: 0.4% single enzyme added to 0.5% CF-416 whole cellulase broth base; 74 g/L glucan, pH 5.0, 55° C., 50 μM copper. How it is done:
(§2) In this Example, M. thermophila-produced and purified GH61a, GH61p, GH61f, GH61n, CBH1a, CBH2b, AXE3, FAE, and Xyl3, were used to supplement the activity present in culture broths (i.e., “whole broth cellulase base”) of the M. thermophila strain CF-416 prepared using standard methods known in the art. The broth cellulase base was fixed to 0.5% protein and the single purified enzyme was added at 0.4% (wt added protein/wt glucan) to the saccharification reactions. The whole cellulase broth base and individual enzymes were characterized by standard BCA assays for total protein quantification.
(§3) The saccharification reactions were carried out at 74 g/L glucan load of pretreated wheat straw (PWS) or pretreated corn stover (PCS) at pH 5.0, 55° C. at 950 rpm in the presence of 50 μM copper in high throughput (HTP) 96 deep well plates. Glucose analysis was carried out by the glucose oxidase assay as described above. In each case, the fold improvement was calculated using the formula Fold Improvement=[Total Glucose Production with addition of 0.4% single enzyme to the whole cellulase broth base]/[glucose production from the 0.5% whole cellulase broth base]. In this Table, the fold improvements were ranked from 0 to 3; fold improvements less than 1.2× are indicated by “0,” fold improvements of >1.2 to <1.5 are indicated by “1,” fold improvements of ≧1.5× to <1.7× improvements are indicated by “2,” and fold improvements ≧1.7 are indicated by “3.”

Experiment [8] concerns pretreated wheat straw (PWS). The experiment is described as follows: Supplementation of CF-416 whole cellulase broth with single purified enzymes, saccharification of pretreated wheat straw. It counts as biochemical. To be noted: 0.4% single enzyme added to 0.5% CF-416 whole cellulase broth base; for Fold Improvement Over Whole Cellulase Broth Tested on PWS: 74 g/L glucan, pH 5.0, 55° C., 50 μM copper. How it is done: as §2, §3

Experiment [9] concerns pre-treated wheat straw. The experiment is described as follows: Biomass assay of GH61a pre-incubated with or supplemented by copper(II) (FIG. 3). It counts as biochemical. Particulars: pre-incubated with copper(II) (CuSO4) 0 to 100 μM, 72 h, pH 5, 55° C. How it is done:
Purified M. thermophila-produced GH61a or S. cerevisiae supernatant containing M. thermophila-GH61a was pre-incubated with different amounts of copper(II) (CuSO4) at concentrations of 0 to 100 μM at ambient temperature for 30 min. The biomass assay was then performed in a total volume of 300 μL, in the presence of 10 mg of pre-treated wheat straw, using 261 μL of copper-treated GH61 samples, 39 μL of sodium acetate buffer (pH 5), M. thermophila-produced CBH1a, CBH2b and β-glucosidase. The final concentration of sodium acetate was 120 mM and the enzyme loads of CBHs and β-glucosidase (CBH1a and CBH2b in 1:1 ratio) were 0.01% and 0.02% with respect to substrate glucan mass in the biomass substrate, respectively. Background (negative) controls were obtained by using either water or media supernatant from cultures of S. cerevisiae cells without the GH61a gene in the plasmid. Thus, the negative controls represent activities of CBH1a, CBH2b and beta-glucosidase in the absence of GH61a. The reaction was incubated at 55° C. for 72 hours with shaking.
Some experiments were also performed without pre-incubating GH61 with copper(II), but instead, by directly adding different amounts of copper(II) (CuSO4) to the biomass assay reactions as described herein.
Biomass assays were performed with (A) S. cerevisiae-produced M. thermophila GH61a Variant 5, and (B) M. thermophila-produced wild-type GH61a. Glucose production after 72 h incubation at pH 5, 55° C. was determined by the glucose assay. The data in this Figure indicate GH61a-only activity, in which the amount of glucose produced in control reaction containing CBH and β-glucosidase was subtracted from the total amount of glucose produced in the reactions with GH61a. In this Figure, N=4; and the error bars represent ±1 standard deviation. Copper concentrations shown are with respect to the total reaction volume.

Where a chain is given by its changes, count along the chain named. Names may count otherwise.

Take `O=C(O)c1cc(O)c(O)c(O)c1` [gallic acid]: in experiment [1], the “GH61 activity in generating soluble sugars from AVICEL® cellulose” value is listed as “improved”. Besides, the “GH61 activity in generating soluble sugars from PASC” value in experiment [2] is given as “improved”.

Consider `O=S(=O)([O-])[O-].[Cu+2]` [copper(II), CuSO4], for which, in experiment [3] (FIG. 4, Panel B), the “total amounts of C5 sugars produced” value is “may cause a decrease”. In addition, the “increase in glucose yields” value in experiment [3] (saccharification pH 5.0) is given as around 3.5%; in experiment [3] (saccharification pH 6.0), “not observed”.

For the molecule TWEEN®-20, the “total glucose production in the saccharification reaction” value in experiment [4] is “enhanced”.

With `O=O` [oxygen], the “glucose yields, closed flask vs flask opened at 4 hrs and 24 hrs for fresh air” value in experiment [5] was “not a limiting factor”.

B1: GH61a: Wild-type M. thermophila C1 GH61a polypeptide (SEQ ID NO:2) (protein, listed as Myceliophthora thermophila)
chain: MSKASALLAGLTGAALVAAHGHVSHIVVNGVYYRNYDPTTDWYQPNPPTVIGWTAADQDNGFVEPNSFGTPDIICHKSATPGGGHATVAAGDKINIVWTPEWPESHIGPVIDYLAACNGDCETVDKSSLRWFKIDGAGYDKAAGRWAADALRANGNSWLVQIPSDLKAGNYVLRHEIIALHGAQSPNGAQAYPQCINLRVTGGGSNLPSGVAGTSLYKATDPGILFNPYVSSPDYTVPGPALIAGAASSIAQSTSVATATGTATVPGGGGANPTATTTAATSAAPSTTLRTTTTSAAQTTAPPSGDVQTKYGQCGGNGWTGPTVCAPGSSCSVLNEWYSQCL
For the molecule B1, the glucose yield entry in [6] is “improvement in glucose yield”. In addition, the “Fold Improvement Over Whole Cellulase Broth Tested on PCS” value in experiment [7] is 2 (fold improvements of ≧1.5× to <1.7×). For the same molecule, in [8], the “improvement over whole cellulase broth on PWS, in words” value was “greatest benefit” and the “Fold Improvement Over Whole Cellulase Broth Tested on PWS” value is 3 (fold improvements ≧1.7). The “GH61a-only activity (glucose production) when Cu^++ is included in the reaction” value (“GH61a-only activity (glucose production)” below) in experiment [9] (listed as M. thermophila-produced GH61a) is recorded as “improved”. Moreover, the “GH61a-only activity (glucose production)” value in experiment [9] (listed as wild-type GH61a) is reported as “increase”.

B2: E104H/K167A (protein)
chain: B1 chain with E104H, K167A
As to B2, the “GH61a-only activity (glucose production)” value in experiment [9] is listed as “increase”; in experiment [9] (listed as S. cerevisiae supernatant containing M. thermophila-GH61a), “improved”.

B3: CBH1a: wild-type M. thermophila CBH1a (SEQ ID NO:128) (protein, listed as Myceliophthora thermophila)
chain: MYAKFATLAALVAGAAAQNACTLTAENHPSLTYSKCTSGGSCTSVQGSITIDANWRWTHRTDSATNCYEGNKWDTSWCSDGPSCASKCCIDGADYSSTYGITTSGNSLNLKFVTKGQYSTNIGSRTYLMESDTKYQMFQLLGNEFTFDVDVSNLGCGLNGALYFVSMDADGGMSKYSGNKAGAKYGTGYCDSQCPRDLKFINGEANVENWQSSTNDANAGTGKYGSCCSEMDVWEANNMAAAFTPHPCTVIGQSRCEGDSCGGTYSTDRYAGICDPDGCDFNSYRQGNKTFYGKGMTVDTTKKITVVTQFLKNSAGELSEIKRFYVQNGKVIPNSESTIPGVEGNSITQDWCDRQKAAFGDVTDFQDKGGMVQMGKALAGPMVLVMSIWDDHAVNMLWLDSTWPIDGAGKPGAERGACPTTSGVPAEVEAEAPNSNVIFSNIRFGPIGSTVSGLPDGGSGNPNPPVSSSTPVPSSSTTSSGSSGPTGGTGVAKHYEQCGGIGFTGPTQCESPYTCTKLNDWYSQCL
In the case of B3, in experiment [7], the “Fold Improvement Over Whole Cellulase Broth Tested on PCS” value was 1 (fold improvements of >1.2 to <1.5). Further, the “Fold Improvement Over Whole Cellulase Broth Tested on PWS” value in experiment [8] was 3 (fold improvements ≧1.7).

The values are drawn from patent US8951758B2, “GH61 glycoside hydrolase protein variants and cofactors that enhance GH61 activity” (Codexis, Inc., priority 2011, dated 2015).
